Measured values published in PMC9735246 (Cell, 2022).

Legend:
[1] = molecular target: T1, Human β-tubulin (TBB5) (human, UniProt P07437 1-444); test: cross-linking
[2] = molecular target: T2, Human α-tubulin (TUBA1B) (human, UniProt P68363 1-451); test: cross-linking
[3] = molecular target: T2, Human α-tubulin (TUBA1B); test: native gel or EMSA
[4] = molecular target: T1, Human β-tubulin (TBB5); test: native gel or EMSA

T1 sequence (P07437 whole entry): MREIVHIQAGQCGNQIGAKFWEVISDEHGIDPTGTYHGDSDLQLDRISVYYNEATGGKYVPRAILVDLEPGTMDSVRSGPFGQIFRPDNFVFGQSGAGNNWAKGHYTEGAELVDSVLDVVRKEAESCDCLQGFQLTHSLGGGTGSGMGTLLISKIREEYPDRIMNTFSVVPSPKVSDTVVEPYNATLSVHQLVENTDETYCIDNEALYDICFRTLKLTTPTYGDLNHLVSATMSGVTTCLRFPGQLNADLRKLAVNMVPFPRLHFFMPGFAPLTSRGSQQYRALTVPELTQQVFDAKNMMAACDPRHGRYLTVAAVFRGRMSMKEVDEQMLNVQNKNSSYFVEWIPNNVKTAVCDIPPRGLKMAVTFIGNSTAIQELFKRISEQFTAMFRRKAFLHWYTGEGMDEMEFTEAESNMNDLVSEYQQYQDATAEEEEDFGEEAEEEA
T2 sequence (P68363 whole entry): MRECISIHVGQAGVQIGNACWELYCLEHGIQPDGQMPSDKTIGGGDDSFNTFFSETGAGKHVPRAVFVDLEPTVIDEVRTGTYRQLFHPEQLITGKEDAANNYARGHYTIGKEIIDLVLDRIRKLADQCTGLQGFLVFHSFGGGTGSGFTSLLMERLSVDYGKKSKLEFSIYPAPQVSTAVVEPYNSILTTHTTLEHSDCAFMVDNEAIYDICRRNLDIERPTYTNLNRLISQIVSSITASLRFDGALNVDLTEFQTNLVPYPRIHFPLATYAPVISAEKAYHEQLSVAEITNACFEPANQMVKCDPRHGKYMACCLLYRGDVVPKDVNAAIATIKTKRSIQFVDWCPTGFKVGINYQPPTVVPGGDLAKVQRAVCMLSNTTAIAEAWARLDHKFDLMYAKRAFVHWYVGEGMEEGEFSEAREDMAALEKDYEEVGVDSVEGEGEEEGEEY

| Binder | binding result [1] | binding result [2] | binding result [3] | binding result [4] |
| --- | --- | --- | --- | --- |
| PFD1, subunit of human Prefoldin (natural protein) MAAPVDLELKKAFTELQAKVIDTQQKVKLADIQIEQLNRTKKHAHLTDTEIMTLVDETNMYEGVGRMFILQSKEAIHSQLLEKQKIAEEKIKELEQKKSYLERSVKEAEDNIREMLMARRAQ | binds | binds |  |  |
| TBCB (natural protein, UniProt Q99426 1-244, looked up) MEVTGVSAPTVTVFISSSLNTFRSEKRYSRSLTIAEFKCKLELLVGSPASCMELELYGVDDKFYSKLDQEDALLGSYPVDDGCRIHVIDHSGARLGEYEDVSRVEKYTISQEAYDQRQDTVRSFLKRSKLGRYNEEERAQQEAEAAQRLAEEKAQASSIPVGSRCEVRAAGQSPRRGTVMYVGLTDFKPGYWIGVRYDEPLGKNDGSVNGKRYFECQAKYGAFVKPAVVTVGDFPEEDYGLDEI |  |  | binds |  |
| PFD3, subunit of human Prefoldin (natural protein) MAAVKDSCGKGEMATGNGRRLHLGIPEAVFVEDVDSFMKQPGNETADTVLKKLDEQYQKYKFMELNLAQKKRRLKGQIPEIKQTLEILKYMQKKKESTNSMETRFLLADNLYCKASVPPTDKVCLWLGANVMLEYDIDEAQALLEKNLSTATKNLDSLEEDLDFLRDQFTTTEVNMARVYNWDVKRRNKDDSTKNKA | binds | binds |  |  |
| TBCA (natural protein, UniProt O75347 1-108, looked up) MADPRVRQIKIKTGVVKRLVKEKVMYEKEAKQQEEKIEKMRAEDGENYDIKKQAEILQESRMMIPDCQRRLEAAYLDLQRILENEKDLEEAEEYKEARLVLDSVKLEA |  |  |  | binds |
